Reference: FireProtDB (doi:10.1021/bi048926x)
“And” between values parts separate entries of the source, which are not always exact repeats. Identical values can stand only once.

B1: Azurin, P00282 (parent)
chain: MLRKLAAVSLLSLLSAPLLAAECSVDIQGNDQMQFNTNAITVDKSCKQFTVNLSHPGNLPKNVMGHNWVLSTAADMQGVVTDGMASGLDKDYLKPDDSRVIAHTKLIGSGEKDSVTFDVSKLKEGEQYMFFCTFPGHSALMKGTLTLK

Variants of: B1
Conditions: Pseudomonas aeruginosa (strain ATCC 15692 / DSM 22644 / CIP 104116 / JCM 14847 / LMG 12228 / 1C / PRS 101 / PAO1), pH 7, Thermal, reversible: No, structure 5AZU, whole UniProt chain shown
[1] = DSC, Potassium phosphate 100 mM

## MLRKLAAVSLLSLLSAPLLAAECSVDIQGNDQMQFNTNAITVERSCKQFTVNLSHPGNLPKNVMGHNWVLSTAADMQGVVTDGMASGLDKDYLKPDDSRVIAHTKLIGSGEKDSVTFDVSKLKEGEQYMFFCTFPGHSALMKGTLTLR [D43E K148R K44R]
Absorbance, Phosphate 10 mM
  Tm: 75 °C
  change of melting temperature, mutant - wild type (higher = more stable): -3 °C
[1]
  change of melting temperature, mutant - wild type (higher = more stable): -1.2 °C and -0.9 °C and -1.1 °C

## MLRKLAAVSLLSLLSAPLLAAECSVDIQGNDQMQFNTNAITVDKSCKQFTVNLSHPGNLPKNVMGHNWVLSTAADMQGVVTCGMASGLDKDYLCPDDSRVIAHTKLIGSGEKDSVTFDVSKLKEGEQYMFFCTFPGHSALMKGTLTLK [D82C K94C]
Absorbance, Phosphate 10 mM
  Tm: 78 °C
  change of melting temperature, mutant - wild type (higher = more stable): 0 °C

## MLRKLAAVSLLSLLSAPLLAAECSVDIQGNDQMQFNTNAITVEKSCKQFTVNLSHPGNLPKNVMGHNWVLSTAADMQGVVTDGMASGLDKDYLKPDDSRVIAHTKLIGSGEKDSVTFDVSKLKEGEQYMFFCTFPGHSALMKGTLTLR [D43E K148R]
Absorbance, Phosphate 10 mM
  Tm: 74 °C
  change of melting temperature, mutant - wild type (higher = more stable): -4 °C
[1]
  unfolding enthalpy (calorimetric): 89.2 kcal/mol and 108 kcal/mol and 122 kcal/mol

## MLRKLAAVSLLSLLSAPLLAAECSVDIQGNDQMQFNTNAITVDRSCKQFTVNLSHPGNLPKNVMGHNWVLSTAADMQGVVTDGMASGLDKDYLKPDDSRVIAHTKLIGSGEKDSVTFDVSKLKEGEQYMFFCTFPGHSALMKGTLTLK [K44R]
Absorbance, Phosphate 10 mM
  Tm: 76 °C
  change of melting temperature, mutant - wild type (higher = more stable): -2 °C
[1]
  change of melting temperature, mutant - wild type (higher = more stable): 0.8 °C and 0.6 °C and 1 °C
  unfolding enthalpy (calorimetric): 124 kcal/mol and 150 kcal/mol and 75.5 kcal/mol
